Laboratory results as given in patent US20060264363.

T1: ATF6 with N-terminal c-Myc-tag
T1 chain: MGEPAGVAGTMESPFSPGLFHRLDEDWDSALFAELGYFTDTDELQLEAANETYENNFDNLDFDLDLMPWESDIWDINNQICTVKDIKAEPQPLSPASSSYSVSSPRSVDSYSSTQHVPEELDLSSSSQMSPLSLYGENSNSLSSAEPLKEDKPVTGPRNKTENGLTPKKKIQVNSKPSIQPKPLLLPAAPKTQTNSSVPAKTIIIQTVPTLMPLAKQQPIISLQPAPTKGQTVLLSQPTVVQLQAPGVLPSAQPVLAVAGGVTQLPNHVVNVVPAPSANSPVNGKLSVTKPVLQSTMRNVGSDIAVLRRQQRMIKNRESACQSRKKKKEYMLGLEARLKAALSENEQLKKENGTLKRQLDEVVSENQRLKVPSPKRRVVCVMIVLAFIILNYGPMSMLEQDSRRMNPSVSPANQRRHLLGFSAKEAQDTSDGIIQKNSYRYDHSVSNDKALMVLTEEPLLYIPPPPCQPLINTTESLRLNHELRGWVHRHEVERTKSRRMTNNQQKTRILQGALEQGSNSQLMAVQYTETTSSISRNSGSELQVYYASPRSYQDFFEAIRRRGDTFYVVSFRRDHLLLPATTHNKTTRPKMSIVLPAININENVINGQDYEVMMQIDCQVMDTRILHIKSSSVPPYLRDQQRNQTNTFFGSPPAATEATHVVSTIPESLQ

T2: CREBL1 with N-terminal c-Myc-tag
T2 chain: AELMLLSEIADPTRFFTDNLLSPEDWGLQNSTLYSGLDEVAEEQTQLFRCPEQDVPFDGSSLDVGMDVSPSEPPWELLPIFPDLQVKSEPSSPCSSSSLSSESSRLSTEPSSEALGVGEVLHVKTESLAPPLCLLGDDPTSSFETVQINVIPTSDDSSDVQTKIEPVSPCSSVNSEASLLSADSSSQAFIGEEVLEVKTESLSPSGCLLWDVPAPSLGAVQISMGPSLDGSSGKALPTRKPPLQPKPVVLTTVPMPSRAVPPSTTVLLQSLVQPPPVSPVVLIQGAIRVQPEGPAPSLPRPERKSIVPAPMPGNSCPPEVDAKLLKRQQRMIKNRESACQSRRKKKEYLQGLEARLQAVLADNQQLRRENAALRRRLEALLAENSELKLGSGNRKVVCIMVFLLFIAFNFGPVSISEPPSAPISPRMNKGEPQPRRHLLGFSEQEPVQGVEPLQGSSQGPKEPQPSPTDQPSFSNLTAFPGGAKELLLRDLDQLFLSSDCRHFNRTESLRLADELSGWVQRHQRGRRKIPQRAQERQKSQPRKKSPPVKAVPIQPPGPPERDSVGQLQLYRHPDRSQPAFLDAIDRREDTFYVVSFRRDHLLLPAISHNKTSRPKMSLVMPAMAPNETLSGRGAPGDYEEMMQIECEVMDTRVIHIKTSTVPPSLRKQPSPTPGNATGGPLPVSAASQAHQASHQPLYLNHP

T3: SHC3 (p52) with C-terminal c-Myc-tag
T3 chain: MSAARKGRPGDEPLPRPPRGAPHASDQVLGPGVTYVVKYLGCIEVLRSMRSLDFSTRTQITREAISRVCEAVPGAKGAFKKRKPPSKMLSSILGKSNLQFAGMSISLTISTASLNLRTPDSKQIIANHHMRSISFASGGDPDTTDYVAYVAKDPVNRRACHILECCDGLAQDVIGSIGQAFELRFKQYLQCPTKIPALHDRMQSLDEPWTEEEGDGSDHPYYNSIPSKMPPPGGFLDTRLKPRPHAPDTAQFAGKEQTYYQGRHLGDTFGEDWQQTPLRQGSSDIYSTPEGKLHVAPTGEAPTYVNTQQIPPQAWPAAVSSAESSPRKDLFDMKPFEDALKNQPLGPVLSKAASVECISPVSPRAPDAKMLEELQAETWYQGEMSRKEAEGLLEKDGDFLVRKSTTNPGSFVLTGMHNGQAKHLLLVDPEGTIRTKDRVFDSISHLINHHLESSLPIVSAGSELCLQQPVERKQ

T4: SHC3 (p64) with C-terminal c-Myc-tag
T4 chain: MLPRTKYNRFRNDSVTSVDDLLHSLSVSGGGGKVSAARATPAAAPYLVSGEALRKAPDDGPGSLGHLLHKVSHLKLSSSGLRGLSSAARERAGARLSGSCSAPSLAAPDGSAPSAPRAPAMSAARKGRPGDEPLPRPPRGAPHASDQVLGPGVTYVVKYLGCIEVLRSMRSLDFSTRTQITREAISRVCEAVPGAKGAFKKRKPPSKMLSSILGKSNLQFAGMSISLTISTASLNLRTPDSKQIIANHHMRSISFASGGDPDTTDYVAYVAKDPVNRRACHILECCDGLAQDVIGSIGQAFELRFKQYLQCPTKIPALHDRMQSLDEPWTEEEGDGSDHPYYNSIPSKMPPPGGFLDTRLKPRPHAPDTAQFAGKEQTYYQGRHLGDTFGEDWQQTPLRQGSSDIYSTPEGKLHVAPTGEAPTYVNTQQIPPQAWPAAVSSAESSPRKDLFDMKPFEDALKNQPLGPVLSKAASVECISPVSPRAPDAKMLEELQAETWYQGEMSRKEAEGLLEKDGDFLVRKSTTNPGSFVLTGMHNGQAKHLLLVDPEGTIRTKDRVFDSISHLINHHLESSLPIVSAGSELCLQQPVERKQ

T5: biotinylated CREBL1, N-terminal tagged (pcDNA3.1/His)
T5 chain: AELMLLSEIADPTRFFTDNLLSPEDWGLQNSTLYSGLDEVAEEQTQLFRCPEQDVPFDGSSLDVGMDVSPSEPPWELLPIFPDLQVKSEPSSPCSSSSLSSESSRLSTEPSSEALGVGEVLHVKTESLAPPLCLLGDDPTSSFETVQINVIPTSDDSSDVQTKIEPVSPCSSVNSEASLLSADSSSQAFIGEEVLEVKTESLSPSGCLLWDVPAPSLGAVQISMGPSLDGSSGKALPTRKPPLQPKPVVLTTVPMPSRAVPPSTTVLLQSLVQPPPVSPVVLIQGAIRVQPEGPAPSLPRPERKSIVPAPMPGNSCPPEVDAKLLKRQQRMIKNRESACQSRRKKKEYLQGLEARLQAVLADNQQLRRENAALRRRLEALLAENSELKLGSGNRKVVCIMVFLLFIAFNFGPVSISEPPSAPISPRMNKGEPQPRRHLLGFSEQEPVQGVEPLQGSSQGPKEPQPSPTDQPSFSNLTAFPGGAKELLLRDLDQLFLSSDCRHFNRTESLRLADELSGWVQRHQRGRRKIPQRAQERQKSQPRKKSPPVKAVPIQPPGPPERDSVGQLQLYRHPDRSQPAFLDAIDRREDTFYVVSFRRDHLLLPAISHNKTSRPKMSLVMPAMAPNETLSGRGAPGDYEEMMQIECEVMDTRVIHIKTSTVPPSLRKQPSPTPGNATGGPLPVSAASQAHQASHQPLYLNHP

T6: biotinylated SHC3 (p52), C-terminal tagged (pcDNA3.1/V5-His)
T6 chain: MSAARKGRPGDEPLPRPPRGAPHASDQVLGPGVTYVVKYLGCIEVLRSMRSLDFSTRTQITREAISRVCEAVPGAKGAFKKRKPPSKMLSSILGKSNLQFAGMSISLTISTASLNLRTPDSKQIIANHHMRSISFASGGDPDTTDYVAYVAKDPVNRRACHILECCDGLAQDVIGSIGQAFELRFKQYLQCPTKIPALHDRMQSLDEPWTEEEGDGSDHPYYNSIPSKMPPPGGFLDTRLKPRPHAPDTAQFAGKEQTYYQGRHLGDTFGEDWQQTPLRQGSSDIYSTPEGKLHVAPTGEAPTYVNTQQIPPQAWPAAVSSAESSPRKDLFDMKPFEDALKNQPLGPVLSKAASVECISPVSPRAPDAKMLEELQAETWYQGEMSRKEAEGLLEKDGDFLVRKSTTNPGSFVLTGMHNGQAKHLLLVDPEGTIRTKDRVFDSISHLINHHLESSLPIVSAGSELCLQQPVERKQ

T7: biotinylated SHC3 (p64), C-terminal tagged (pcDNA3.1/V5-His)
T7 chain: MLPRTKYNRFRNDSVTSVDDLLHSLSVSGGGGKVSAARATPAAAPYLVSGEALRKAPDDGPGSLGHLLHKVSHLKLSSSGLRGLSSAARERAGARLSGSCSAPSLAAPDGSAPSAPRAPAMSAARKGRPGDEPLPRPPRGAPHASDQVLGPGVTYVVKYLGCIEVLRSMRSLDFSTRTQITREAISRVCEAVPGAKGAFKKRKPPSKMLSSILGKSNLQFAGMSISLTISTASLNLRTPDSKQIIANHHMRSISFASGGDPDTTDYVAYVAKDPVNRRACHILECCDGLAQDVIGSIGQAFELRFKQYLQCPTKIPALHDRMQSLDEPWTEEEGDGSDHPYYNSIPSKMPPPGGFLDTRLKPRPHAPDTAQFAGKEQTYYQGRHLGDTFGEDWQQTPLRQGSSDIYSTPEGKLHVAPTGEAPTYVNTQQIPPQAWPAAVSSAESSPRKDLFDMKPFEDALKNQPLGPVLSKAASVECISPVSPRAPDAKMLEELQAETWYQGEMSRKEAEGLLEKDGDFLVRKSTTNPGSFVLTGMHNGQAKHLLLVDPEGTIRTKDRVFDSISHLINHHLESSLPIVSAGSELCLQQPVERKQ


Columns and labels:
[1] = target: T1, ATF6 with N-terminal c-Myc-tag
[2] = target: T2, CREBL1 with N-terminal c-Myc-tag
[3] = target: T3, SHC3 (p52) with C-terminal c-Myc-tag
[4] = target: T4, SHC3 (p64) with C-terminal c-Myc-tag
[5] = target: T5, biotinylated CREBL1, N-terminal tagged …
[6] = target: T6, biotinylated SHC3 (p52), C-terminal …
[7] = target: T7, biotinylated SHC3 (p64), C-terminal …

| Protein | in vitro protease assay: band of ATF6 on anti-Myc Western blot [1] | in vitro protease assay: band of CREBL1 on anti-Myc Western blot [2] | in vitro protease assay: degradation of SHC3 (p52), anti-Myc Western blot [3] | in vitro protease assay: band of SHC3 (p64) on anti-Myc Western blot [4] | in vitro protease assay: degradation pattern of biotinylated CREBL1 (streptavidin HRP and anti-Xpress blots) [5] | in vitro protease assay: degradation pattern of biotinylated SHC3 (p52) (streptavidin HRP and anti-V5 blots) [6] | in vitro protease assay: degradation pattern of biotinylated SHC3 (p64) (streptavidin HRP and anti-V5 blots) [7] | in vitro protease assay: degradation of ATF6, anti-Myc Western blot [1] | in vitro protease assay: degradation of CREBL1, anti-Myc Western blot [2] | in vitro protease assay: degradation of SHC3 (p64), anti-Myc Western blot [4] | in vitro protease assay: degradation of biotinylated CREBL1 (streptavidin HRP blot) [5] | in vitro protease assay: degradation of biotinylated SHC3 (p52) (streptavidin HRP blot) [6] | in vitro protease assay: degradation of biotinylated SHC3 (p64) (streptavidin HRP blot) [7] |
| --- | --- | --- | --- | --- | --- | --- | --- | --- | --- | --- | --- | --- | --- |
| mature HtrA2 with C-terminal histidine (His)-tag (protein) MAVPSPPPASPRSQYNFIADVVEKTAPAVVYIEILDRHPFLGREVPISNGSGFVVAADGLIVTNAHVVADRRRVRVRLLSGDTYEAVVTAVDPVADIATLRIQTKEPLPTLPLGRSADVRQGEFVVAMGSPFALQNTITSGIVSSAQRPARDLGLPQTNVEYIQTDAAIDFGNSGGPLVNLDGEVIGVNTMKVTAGISFAIPSDRLREFLHRGEKKNSSSGISGSQRRYIGVMMLTLSPSILAELQLREPSFPDVQHGVLIHKVILGSPAHRAGLRPGDVILAIGEQMVQNAEDVYEAVRTQSQLAVQIRRGRETLTLYVTPEVTE | the band of ATF6 was significantly reduced after the reaction of active HtrA2 with ATF6 for four hours (4 h) or overnight (O/N) | the band of CREBL1 was significantly reduced after the reaction of active HtrA2 with CREBL1 for overnight (O/N) | Further it was observed that SHC3 (p52) was also degraded by mature HtrA2. | the band of SHC3 (p64) was significantly reduced after the reaction of active HtrA2 with SHC3 (p64) for four hours (4 h) or overnight (O/N) | remarkable reduction of the band of biotinylated CREBL1 was observed, and further, the band that was supposed to be a degradation product of CREBL1 was detected around 50 kDa | remarkable reduction of the band of biotinylated SHC3 (p52) was observed, but the band that was supposed to be a degradation product of SHC3 (p52) was not detected | remarkable reduction of the band of biotinylated SHC3 (p64) was observed, and further, the bands that were supposed to be a degradation products of SHC3 (p64) were detected around 70 kDa, 40 kDa, and 30 kDa |  |  |  |  |  |  |
| mature HtrA2 (S306A) with C-terminal histidine (His)-tag (protein) MAVPSPPPASPRSQYNFIADVVEKTAPAVVYIEILDRHPFLGREVPISNGSGFVVAADGLIVTNAHVVADRRRVRVRLLSGDTYEAVVTAVDPVADIATLRIQTKEPLPTLPLGRSADVRQGEFVVAMGSPFALQNTITSGIVSSAQRPARDLGLPQTNVEYIQTDAAIDFGNAGGPLVNLDGEVIGVNTMKVTAGISFAIPSDRLREFLHRGEKKNSSSGISGSQRRYIGVMMLTLSPSILAELQLREPSFPDVQHGVLIHKVILGSPAHRAGLRPGDVILAIGEQMVQNAEDVYEAVRTQSQLAVQIRRGRETLTLYVTPEVTE |  |  | the degradation of SHC3 (p52) by inactive HtrA2 (mature HtrA2 (S306A)) was not observed as well |  |  |  |  | the degradation of CREBL1, ATF6, and SHC3 (p64) by inactive HtrA2 (mature HtrA2 (S306A)) was not observed | the degradation of CREBL1, ATF6, and SHC3 (p64) by inactive HtrA2 (mature HtrA2 (S306A)) was not observed | the degradation of CREBL1, ATF6, and SHC3 (p64) by inactive HtrA2 (mature HtrA2 (S306A)) was not observed | the degradation of CREBL1 by inactive HtrA2 (mature HtrA2 (S306A)) was not observed, and the band around 50 kDa as above was not detected | the degradation of SHC3 (p52) by inactive HtrA2 (mature HtrA2 (S306A)) was not observed | the degradation of SHC3 (p64) by inactive HtrA2 (mature HtrA2 (S306A)) was not observed, and the bands around 70 kDa, 40 kDa and 30 kDa as above were not detected |
